Test results: publication PMC3198853

Target: LDLRs
Test: SPR

Kd: 330 nM
Substance: Tissue-type plasminogen activator (recombinant human tPA, Actilyse) (enzyme)
